Assay results as given in patent US20130064823A1 (Novartis, published 2013).
Where a chain is given by its changes, count along the chain named.

T1: LRP6-Fc (R&D Systems, catalog No: 1505-LR) (human, UniProt O75581 20-1370)
T1 construct: also called 360 KD homodimer antigen LRP6-Fc
T1 sequence (looked up): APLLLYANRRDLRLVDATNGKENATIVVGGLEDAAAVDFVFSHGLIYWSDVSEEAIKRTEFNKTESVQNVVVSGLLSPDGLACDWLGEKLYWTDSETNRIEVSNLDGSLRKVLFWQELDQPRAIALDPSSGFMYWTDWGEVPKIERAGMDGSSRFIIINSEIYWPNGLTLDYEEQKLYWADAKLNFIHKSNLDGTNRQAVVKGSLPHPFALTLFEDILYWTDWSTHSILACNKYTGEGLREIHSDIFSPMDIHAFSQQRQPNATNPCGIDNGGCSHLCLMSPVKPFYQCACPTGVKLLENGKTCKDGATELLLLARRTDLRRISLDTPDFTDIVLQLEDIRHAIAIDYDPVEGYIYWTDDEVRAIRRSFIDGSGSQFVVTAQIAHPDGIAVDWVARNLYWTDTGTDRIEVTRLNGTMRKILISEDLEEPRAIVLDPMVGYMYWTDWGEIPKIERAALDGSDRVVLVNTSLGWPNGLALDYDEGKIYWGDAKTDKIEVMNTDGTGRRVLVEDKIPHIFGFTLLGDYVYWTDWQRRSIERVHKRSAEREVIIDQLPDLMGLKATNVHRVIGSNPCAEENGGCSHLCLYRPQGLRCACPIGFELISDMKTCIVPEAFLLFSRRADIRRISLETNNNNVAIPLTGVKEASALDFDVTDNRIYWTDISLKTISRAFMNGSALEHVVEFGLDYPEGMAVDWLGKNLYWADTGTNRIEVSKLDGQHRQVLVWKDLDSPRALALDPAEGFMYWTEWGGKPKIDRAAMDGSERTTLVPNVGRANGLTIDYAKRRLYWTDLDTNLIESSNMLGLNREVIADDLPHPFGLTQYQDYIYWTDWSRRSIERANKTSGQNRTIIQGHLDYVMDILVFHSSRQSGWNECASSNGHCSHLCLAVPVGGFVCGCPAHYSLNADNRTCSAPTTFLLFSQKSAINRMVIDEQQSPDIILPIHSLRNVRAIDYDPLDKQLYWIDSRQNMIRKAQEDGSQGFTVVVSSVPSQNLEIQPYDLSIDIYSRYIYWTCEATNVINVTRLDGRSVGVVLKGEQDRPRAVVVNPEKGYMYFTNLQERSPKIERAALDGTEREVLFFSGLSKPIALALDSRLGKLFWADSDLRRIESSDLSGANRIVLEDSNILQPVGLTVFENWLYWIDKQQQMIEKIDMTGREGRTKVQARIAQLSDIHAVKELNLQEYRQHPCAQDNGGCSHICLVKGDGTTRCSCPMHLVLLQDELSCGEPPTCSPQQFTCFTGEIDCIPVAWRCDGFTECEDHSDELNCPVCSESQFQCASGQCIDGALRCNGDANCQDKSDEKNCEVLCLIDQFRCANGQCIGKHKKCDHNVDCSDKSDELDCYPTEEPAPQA

B1: scFv08168-D2 (scFv)
chain: QVQLVESGGGLVQPGGSLRLSCAASGFTFSDYVFNWVRQAPGKGLEWVAGISWSGVNTHYADSVKGRFTISRDNSKNTLYLQMNSLRAEDTAVYYCARLGATANNIRYKFMDVWGQGTLVTVSSGGGGSGGGGSGGGGSDIELTQPPSVSVAPGQTARISCSGDSLRNKVYWYQQKPGQAPVLVIYKNNRPSGIPERFSGSNSGNTATLTISGTQAEDEADYYCQSYDGQKSLVFGGGTKLTVL
B2: scFv08168-D5 (scFv)
chain: B1 chain with F34M, A49S, H59Y
B3: scFv08168-D4 (scFv)
chain: B1 chain with F34M, A49S, G50S
B4: scFv08168-D7 (scFv, V domains shown)
VH: QVQLVESGGGLVQPGGSLRLSCAASGFTFSDYVMNWVRQAPGKGLEWVSGISWSGVNTHYADSVKGRFTISRDNSKNTLYLQMNSLRAEDTAVYYCARLGATANNIRYKFMDVWGQGTLVTVSS
VL: DIELTQPPSVSVAPGQTARITCSGDSLRNKVYWYQQKPGQAPVLVIYKNNRPSGIPERFSGSNSGNTATLTISGTQAEDEADYYCQSYDGQKSLVFGGGTKLTVL
B5: scFv08168-D9 (scFv, V domains shown)
VH: B4 VH
VL: B4 VL with T21S, G61V
B6: scFv08168-D8 (scFv, V domains shown)
VH: B4 VH
VL: B4 VL with T21S, V45L
B7: scFv08168-D6 (scFv, V domains shown)
VH: B4 VH with V48I
VL: B4 VL with T21S
B8: MOR08473 Fab (Fab, V domains shown)
VH: QVQLVESGGGLVQPGGSLRLSCAASGFTFSSYGMSWVRQAPGKGLEWVSNISNDGHYTYYADSVKGRFTISRDNSKNTLYLQMNSLRAEDTAVYYCARFQASYLDIMDYWGQGTLVTVSS
VL: DIELTQPPSVSVAPGQSITISCSGDNIGSKYVHWYQQKPGQAPVLVIYNDSNRPSGIPERFSGSNSGNTATLTISGTQAEDEADYYCQAWGDNGTRVFGGGTKLTVLG
notes: also called Propeller 3 anti-LRP6 Fab MOR08473
B9: MOR08545 Fab (Fab, V domains shown)
VH: QVQLVESGGGLVQPGGSLRLSCAASGFTFSVNGMHWVRQAPGKGLEWVSVIDGMGHTYYADSVKGRFTISRDNSKNTLYLQMNSLRAEDTAVYYCARYDYIKYGAFDPWGQGTLVTVSS
VL: DIELTQPPSVSVAPGQTARISCSGDNIGSKYVHWYQQKPGQAPVLVIYGDSNRPSGIPERFSGSNSGNTATLTISGTQAEDEADYYCTRTSTPISGVFGGGTKLTVLG
notes: also called Propeller 1 anti-LRP6 Fab MOR08545
B10: MOR08168 Fab (Fab, V domains shown)
VH: B4 VH with M34I
VL: B4 VL with T21S
notes: HuCAL Fab expressed in E. coli; also called Propeller 1 anti-LRP6 Fab MOR08168
B11: MOR06706 Fab (Fab, V domains shown)
VH: QVQLVESGGGLVQPGGSLRLSCAASGFTFSDYAIHWVRQAPGKGLEWVSGISYSGSSTHYADSVKGRFTISRDNSKNTLYLQMNSLRAEDTAVYYCARGSHGNIMAKRYFDFWGQGTLVTVSS
VL: DIELTQPPSVSVAPGQTARISCSGDNIRKKYVYWYQQKPGQAPVLVIYEDSKRPSGIPERFSGSNSGNTATLTISGTQAEDEADYYCSTADSGINNGVFGGGTKLTVL
notes: also called Propeller 1 anti-LRP6 Fab MOR06706
B12: MOR08193 Fab (Fab, V domains shown)
VH: QVQLKESGPALVKPTQTLTLTCTFSGFSLSNRGGGVGWIRQPPGKALEWLAWIDWDDDKSYSTSLKTRLTISKDTSKNQVVLTMTNMDPVDTATYYCARMHLPLVFDSWGQGTLVTVSS
VL: DIVLTQSPATLSLSPGERATLSCRASQFIGSRYLAWYQQKPGQAPRLLIYGASNRATGVPARFSGSGSGTDFTLTISSLEPEDFAVYYCQQYWSIPITFGQGTKVEIKR
notes: also called Propeller 3 anti-LRP6 Fab MOR08193

Each binder was assayed against T1, LRP6-Fc (R&D Systems, catalog No: …) (assay: ELISA on plates coated with LRP6-Fc).
Protocol: Binding EC₅₀ of scFvs against LRP6 protein was measured by ELISA. Maxisorp plate was coated with LRP6-Fc (R&D Sysytems, catalog No: 1505-LR) at 3 μg/ml at 4° C. overnight. The plate was blocked with 50 μl of 2% BSA for one hour, and washed five times with the wash solution. The samples were diluted with 1% BSA accordingly. The plate was incubated at RT for 1 h, and washed for 3 times. Detection was done by adding 50 μl pentallis-HRP (Qiagen Mat. No. 1014992) at 1:2000 dilution in 1% BSA, incubated at RT for 1 h, and washed 3 times. 50 μl of substrate reagent A plus B (R&D systems) was added, then incubated for 5-20 min depending on the color. The reaction was stopped by adding 25 μl of the stop solution, followed by plate reading at 450 nm.
Affinity analysis ELISA EC₅₀ was carried out for both scFv08168 and scFv06475 wild type and variants.

Row | EC50 [nM] | Binder
1 | 1.68 | B1
2 | 1.22 | B2
3 | 1.47 | B3
4 | 1.15 | B4
5 | 1.26 | B5
6 | 0.91 | B6
7 | 1.24 | B7

The binders below were run against cynomolgus LRP6 (cynomolgus, UniProt A0A2K5VCG3 20-1602) (assay: FACS on HEK293T/17 cells transiently transfected with cynomolgus LRP6 (Example 3); Fab or IgG format not stated on the sheet).
Chain of cynomolgus LRP6 (A0A2K5VCG3 entry or part of it): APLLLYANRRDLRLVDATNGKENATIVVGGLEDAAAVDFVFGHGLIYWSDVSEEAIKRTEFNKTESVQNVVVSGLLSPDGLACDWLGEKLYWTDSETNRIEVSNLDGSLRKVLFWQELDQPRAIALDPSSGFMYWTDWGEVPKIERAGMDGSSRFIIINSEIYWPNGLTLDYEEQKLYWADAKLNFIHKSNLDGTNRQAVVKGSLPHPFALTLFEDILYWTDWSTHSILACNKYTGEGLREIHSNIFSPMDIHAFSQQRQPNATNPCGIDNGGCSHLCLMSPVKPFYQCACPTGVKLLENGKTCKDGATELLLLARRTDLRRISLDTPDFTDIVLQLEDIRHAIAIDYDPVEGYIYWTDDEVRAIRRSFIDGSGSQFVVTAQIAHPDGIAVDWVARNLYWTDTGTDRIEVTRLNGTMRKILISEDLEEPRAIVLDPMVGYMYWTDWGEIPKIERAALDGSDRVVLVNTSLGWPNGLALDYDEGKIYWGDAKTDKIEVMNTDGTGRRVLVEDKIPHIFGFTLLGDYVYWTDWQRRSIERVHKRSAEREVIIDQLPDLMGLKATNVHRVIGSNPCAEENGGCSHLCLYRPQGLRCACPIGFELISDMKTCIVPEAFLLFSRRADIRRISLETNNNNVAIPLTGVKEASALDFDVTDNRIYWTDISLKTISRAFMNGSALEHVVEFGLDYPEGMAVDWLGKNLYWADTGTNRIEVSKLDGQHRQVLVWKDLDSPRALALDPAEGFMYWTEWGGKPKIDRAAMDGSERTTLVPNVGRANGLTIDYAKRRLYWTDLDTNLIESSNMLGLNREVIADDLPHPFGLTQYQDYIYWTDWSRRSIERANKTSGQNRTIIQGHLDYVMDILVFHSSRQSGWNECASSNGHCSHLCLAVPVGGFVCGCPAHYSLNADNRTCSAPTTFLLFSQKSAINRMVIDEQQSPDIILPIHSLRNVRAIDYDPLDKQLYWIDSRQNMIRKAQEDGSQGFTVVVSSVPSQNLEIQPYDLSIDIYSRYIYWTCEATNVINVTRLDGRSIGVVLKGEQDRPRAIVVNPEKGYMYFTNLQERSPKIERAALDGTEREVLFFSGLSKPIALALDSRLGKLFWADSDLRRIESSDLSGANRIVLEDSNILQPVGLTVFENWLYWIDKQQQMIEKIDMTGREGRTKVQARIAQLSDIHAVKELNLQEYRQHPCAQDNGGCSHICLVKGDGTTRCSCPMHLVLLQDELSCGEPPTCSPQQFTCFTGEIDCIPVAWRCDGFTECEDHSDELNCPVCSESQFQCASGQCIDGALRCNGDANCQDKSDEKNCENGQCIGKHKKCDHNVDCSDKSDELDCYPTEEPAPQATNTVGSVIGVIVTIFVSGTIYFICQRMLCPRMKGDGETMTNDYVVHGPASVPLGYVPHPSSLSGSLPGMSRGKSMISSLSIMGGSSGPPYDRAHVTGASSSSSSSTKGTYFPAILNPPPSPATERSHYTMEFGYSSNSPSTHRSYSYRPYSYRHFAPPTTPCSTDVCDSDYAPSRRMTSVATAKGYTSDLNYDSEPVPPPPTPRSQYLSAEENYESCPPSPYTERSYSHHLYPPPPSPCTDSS

Row | EC50 [nM] | Binder
8 | 0.52 | B8
9 | 0.3 | B9
10 | 0.88 | B10
11 | 0.46 | B11
12 | 0.2 | B12

These binders were tested against human LRP6 (human, UniProt O75581 20-1613) (assay: cell-based or functional assay).

Row | IC50 by STF assay for Wnt1 inhibition [nM] | Binder
13 | 4.81 | B4
14 | 11.1 | B5
15 | 0.74 | B7
